What was measured:
[1] = biological target: nucleosome core particle (NCP); test: AUC
[2] = biological target: nucleosome core particle (NCP); test: ITC
[3] = biological target: nucleosome core particle (NCP); test: native gel or EMSA
[4] = biological target: GST-tagged AtFKBP53 NTD (Arabidopsis thaliana)
[5] = biological target: AtFKBP53 NTD (residues 1–112) (Arabidopsis thaliana) (UniProt Q93ZG9); test: AUC
AtFKBP53 NTD (residues 1–112) (Arabidopsis thaliana), sequence (Q93ZG9 1-112): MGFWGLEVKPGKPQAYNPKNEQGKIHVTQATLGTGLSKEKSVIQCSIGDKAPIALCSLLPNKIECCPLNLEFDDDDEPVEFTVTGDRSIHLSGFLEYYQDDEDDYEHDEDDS

AtFKBP53 NTD (residues 1–112), sequence (Q93ZG9 1-112): as above
GST-tagged AtFKBP53 NTD (domain or fragment), sequence (Q93ZG9 whole entry, the tested form may be a part): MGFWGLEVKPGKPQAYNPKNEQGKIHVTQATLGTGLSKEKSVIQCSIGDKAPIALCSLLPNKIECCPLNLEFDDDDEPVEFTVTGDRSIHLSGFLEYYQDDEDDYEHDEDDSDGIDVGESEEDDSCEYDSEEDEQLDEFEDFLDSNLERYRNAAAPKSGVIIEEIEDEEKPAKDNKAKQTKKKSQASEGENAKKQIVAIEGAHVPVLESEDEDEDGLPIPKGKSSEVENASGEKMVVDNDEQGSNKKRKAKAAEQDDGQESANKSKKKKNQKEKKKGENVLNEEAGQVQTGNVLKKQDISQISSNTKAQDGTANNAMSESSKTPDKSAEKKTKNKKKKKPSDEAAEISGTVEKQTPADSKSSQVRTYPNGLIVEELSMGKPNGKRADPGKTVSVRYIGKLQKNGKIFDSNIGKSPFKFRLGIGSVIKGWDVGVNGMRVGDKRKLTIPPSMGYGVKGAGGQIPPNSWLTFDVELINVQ

A stoichiometry N (NTD pentamers per NCP) [1] of 2, a Kd1 (first site, sequential binding model) [2] of 0.18 µM and a Kd2 (second site, sequential binding model) [2] of 2.72 µM were found for “AtFKBP53 NTD (residues 1–112) (from UniProt Q93ZG9 1-112) (domain or fragment)” in this work. The stoichiometry N (binding sites on NCP) [2] was 2 and the stoichiometry N (NTD pentamers per NCP) [3] was 2.

A stoichiometry N [4] of 2 was found for “GST-tagged AtFKBP53 NTD (domain or fragment)” in this work.

A stoichiometry N (H2A/H2B dimer per NTD pentamer) [5] of 1 was found for “H2A/H2B dimer (from UniProt P06897;P02281) (complex)” in this work.

A stoichiometry N (H3/H4 tetramer per NTD pentamer) [5] of 1 was found for “H3/H4 tetramer (from UniProt P84233;P62799) (complex)” in this work.

Reference: PMC7026663
